# Reference: patent US9505823
# Target: IGF-I receptor (on L6 cells) (UniProt P24062)
# Test: cell-based or functional assay
# Sequence of UniProt P24062 (P24062 31-1370 limits assumed): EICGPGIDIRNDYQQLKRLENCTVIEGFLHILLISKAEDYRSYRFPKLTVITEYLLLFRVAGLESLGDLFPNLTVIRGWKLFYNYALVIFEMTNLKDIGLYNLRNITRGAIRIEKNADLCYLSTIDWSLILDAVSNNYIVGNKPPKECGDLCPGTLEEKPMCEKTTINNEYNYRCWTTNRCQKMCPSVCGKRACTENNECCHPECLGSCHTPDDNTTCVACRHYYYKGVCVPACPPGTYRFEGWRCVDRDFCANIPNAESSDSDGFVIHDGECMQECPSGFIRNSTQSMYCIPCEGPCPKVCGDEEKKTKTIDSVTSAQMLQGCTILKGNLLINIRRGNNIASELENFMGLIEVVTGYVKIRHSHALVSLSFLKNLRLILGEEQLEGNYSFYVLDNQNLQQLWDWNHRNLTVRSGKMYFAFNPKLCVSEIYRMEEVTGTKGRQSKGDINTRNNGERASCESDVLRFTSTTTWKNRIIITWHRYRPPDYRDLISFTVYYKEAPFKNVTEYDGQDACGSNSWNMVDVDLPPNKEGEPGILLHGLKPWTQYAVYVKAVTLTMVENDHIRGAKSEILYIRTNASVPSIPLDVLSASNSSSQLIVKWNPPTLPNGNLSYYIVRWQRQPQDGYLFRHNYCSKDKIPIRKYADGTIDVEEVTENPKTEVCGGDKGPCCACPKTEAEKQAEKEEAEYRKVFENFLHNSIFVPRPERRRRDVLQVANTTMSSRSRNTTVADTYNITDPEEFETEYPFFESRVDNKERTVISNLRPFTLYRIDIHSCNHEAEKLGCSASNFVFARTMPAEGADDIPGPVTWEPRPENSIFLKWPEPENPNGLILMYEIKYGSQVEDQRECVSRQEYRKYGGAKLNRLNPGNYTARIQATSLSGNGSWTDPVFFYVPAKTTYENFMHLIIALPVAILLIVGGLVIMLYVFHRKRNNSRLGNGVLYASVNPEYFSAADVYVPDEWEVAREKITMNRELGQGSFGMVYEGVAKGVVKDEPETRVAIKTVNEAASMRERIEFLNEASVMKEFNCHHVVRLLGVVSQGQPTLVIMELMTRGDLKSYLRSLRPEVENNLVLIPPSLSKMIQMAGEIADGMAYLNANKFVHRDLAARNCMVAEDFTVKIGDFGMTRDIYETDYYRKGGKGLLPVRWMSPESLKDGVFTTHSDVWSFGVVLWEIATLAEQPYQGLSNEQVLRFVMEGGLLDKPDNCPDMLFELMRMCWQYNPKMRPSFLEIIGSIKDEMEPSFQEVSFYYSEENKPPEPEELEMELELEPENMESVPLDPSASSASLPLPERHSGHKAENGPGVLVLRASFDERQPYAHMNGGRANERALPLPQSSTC
"EC50 of L6 cell proliferation (CellTiter-Glo, 2 days)","EC50 of mitogenic activity, L6 cells","Percent mitogenic activity, L6 cells (insulin = 100)",Substance
0.9 nM,4.73 nM,77 percent,"Glargine (Lantus, Aventis) (ligand)"
–,14.8 nM,24.7 percent,Levemir (ligand)
0.04 nM,0.07 nM,5230 percent,IGF-I (from UniProt P05019 49-118) (ligand)
